Results from patent US20230272054A1, “COMBINATION THERAPIES FOR THE TREATMENT AND PREVENTION OF BIOFILMS” (priority 2020, published 2023).
“Also recorded” adds a separate entry of the source. Read-outs that look alike come from different tables or passages of the source.

Columns and labels:
HMGB1 full-length = details: CITED Xin et al., 2000; Table 1 lists under mHMGB1, p605 says full-length HMGB1; cited from earlier work
[1] = biological target: T1, IHFNTHI, native integration host factor (DNABII protein) of nontypeable Haemophilus influenzae (nontypeable Haemophilus influenzae …, UniProt P43723 1-96; P43724 1-94)
T1 sequence 1: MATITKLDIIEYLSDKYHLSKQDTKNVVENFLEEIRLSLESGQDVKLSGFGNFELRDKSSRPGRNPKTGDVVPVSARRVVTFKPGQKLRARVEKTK
T1 sequence 2: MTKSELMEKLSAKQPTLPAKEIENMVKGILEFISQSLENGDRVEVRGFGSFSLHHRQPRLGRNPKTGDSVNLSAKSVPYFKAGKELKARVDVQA

[2] = biological target: T2, HUNTHI, native histone-like protein HU (DNABII protein) of nontypeable Haemophilus influenzae (nontypeable Haemophilus influenzae …, UniProt P43722 1-90)
T2 sequence: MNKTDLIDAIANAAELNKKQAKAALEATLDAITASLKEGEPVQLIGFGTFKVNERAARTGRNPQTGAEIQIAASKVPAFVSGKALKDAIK

[3] = biological target: T2, HUNTHI, native histone-like protein HU …; experiment: SPR (Biacore); mHMGB1 immobilised, HUNTHI injected; the text value differs from Table 1 (103)
HJ DNA = experiment: Electrophoretic mobility shift assay (EMSA), binding to HJ DNA; details: 20 nM 6-carboxyfluorescein HJ DNA, 50-500 nM protein, non-denaturing PAGE
Procedure: Arrows indicate the HJ DNA-protein complex.
FIG. 11A provides that NEM-modified rHMGB1 was confirmed by triton acetic acid urea gel (TAU gel). […] Arrows indicate the HJ DNA-protein complex.
Electrophoretic mobility shift assay (EMSA): EMSA was performed as previously described (Devaraj et al., 2019).

[4] = system: pro-inflammatory and anti-inflammatory cytokines; experiment: Quantitation of cytokines in middle ear fluids (cytometric bead array); format: in vivo, chinchilla (Chinchilla lanigera); details: six days after NTHI challenge, one day after completion of treatment
Procedure: Quantitation of cytokines in middle ear fluids: To quantitate cytokines in middle ear fluids (MEF), a BD™ Cytometric Bead Array was performed with fluids collected at the time of animal sacrifice. With BD™ human-specific Flex Sets, each MEF was individually examined for relative quantity of IL-1β, IL-4, IL-6, IL-8, IL-10, IL12-p70, IL-13, IL-17A, TNF or IFNγ according to manufacturer's instructions. MEFs from each animal were assayed individually. Data were captured on a BD ACCURI™ C6 cytometer (BD Biosciences) and analyzed with FlowJo software (FlowJo, LLC). The concentration of cytokines in each MEF was determined using a standard curve and calculated using GraphPad Prism software.

Human neutrophils = experiment: NET formation by neutrophils incubated with HMGB1 isoforms (CLSM); format: cell-based; details: 200 nM protein, 3.5 h
Procedure: Neutrophils were fixed, then labeled as described above to visualize the NETs.
Visualization of NETs structure upon incubation of neutrophils with various isoforms of HMGB1: Human neutrophils were isolated from blood using the EASYSEP™ isolation kit (Stemcell Technologies Inc.). […] NETs were fixed in formalin, blocked with 10% normal goat serum (Life Technologies), and labeled with α-dsDNA monoclonal antibody (1 μg), and α-neutrophil elastase polyclonal antibody (1 μg) or naive rabbit and mouse isotype controls (1 μg) in 200 μl PBS for 16 h hours at 4° C. NETs were washed with PBS and incubated for 1 h with 1:200 dilution goat α-rabbit IgG conjugated to ALEXAFLUOR® 594, goat α-mouse IgG conjugated to ALEXAFLUOR® 488, and 1:500 dilution wheat germ agglutinin conjugated to ALEXAFLUOR® 350 (PMN membrane stain). NETs were imaged with a Zeiss LSM 800 confocal microscope (Carl Zeiss Inc.) and rendered with Zeiss Zen software.

B. cenocepacia = experiment: Murine model of lung infection by B. cenocepacia, bacterial burden; details: 0.2 nmol i.t. at 24 hpi; 72 hpi; α-EF-Tu labeling
Procedure: Intratracheal challenge of the murine lung with B. cenocepacia and treatment with HMGB1 isoforms: B. cenocepacia strain K56-2, was cultured in LB broth (Difco, Md.) at 37° C. overnight at 200 rpm. Bacterial concentration was adjusted before each experiment based on OD at 600 nm. C57BL/6 mice were infected intratracheally (i.t.) with 10^7 colony forming units (CFU) of B. cenocepacia. […] Animals were euthanized 24 or 48 hpi, and bronchoalveolar lavage (BAL) was collected with 1 ml of PBS plus 1 mM EDTA. […] The slides were permeabilized with 0.5% Triton X-100 for 10 minutes, blocked with 10% normal goat serum (Abcam) for 30 minutes and stained with a monoclonal antibody against E. coli Elongation Factor-Tu (α-EF-Tu; cross reacts with B. cenocepacia) (LSBio) overnight to label B. cenocepacia. The samples were then stained with goat α-mouse IgG Alexa Fluor 488 (Abcam) for 1 h at RT, mounted with fluoroshield media with DAPI (Abcam), visualized via the Nikon Eclipse Ti at 40× magnification (Nikon Instrument Inc. Americas) and analyzed by ImageJ software (NIH). To enumerate bacterial burden, the animals were euthanized 18 or 72 hpi, bronchoalveolar lavage was collected with 1 ml of PBS plus 1 mM EDTA, an aliquot of BAL was serially diluted and plated on LB agar. […] Neither animals nor samples were excluded from evaluation in any study.

UPEC biofilms = experiment: Disruption of 24 h UPEC biofilms in vitro (CLSM, COMSTAT average thickness); details: mHMGB1 200 nM, 16 h
[5] = system: eDNA lattice within K. pneumoniae biofilms; experiment: Visualization of eDNA lattice structure within K. pneumoniae biofilms (immunofluorescence, CLSM); format: cell-based, Klebsiella pneumoniae; details: 24 h K. pneumoniae biofilms, 200 nM protein, 16 h
From the text: Per the model as disclosed herein, HMGB1 would compete with DNABII proteins, wherein instead of stabilization, HMGB1 would de-stabilize these HJ-like structures and consequently disrupt the biofilm.

NTHI biofilms = experiment: Disruption of NTHI biofilms in the middle ears of chinchillas with experimental otitis media; format: in vivo, chinchilla (Chinchilla lanigera); details: 200 nM mHMGB1 and/or 342 nM Fabs
Procedure: As a negative control, an equivalent volume of sterile saline was delivered. One day after receipt of the second therapeutic dose, all animals were sacrificed and NTHI within the middle ear biofilms was enumerated. The relative amount of mucosal biofilm and mucosal inflammation were also qualitatively assessed.
First, effectiveness of single treatment was evaluated. To this end, a subset of animals in each cohort was sacrificed one day after receipt of a single therapeutic dose (FIG. 16H) whereas the remaining animals in each cohort were sacrificed 24 h after receipt of a second treatment.
Chinchilla model of experimental otitis media (OM): Adult chinchillas (Chinchilla lanigera) were obtained from Rauscher's Chinchilla Ranch, LLC. These outbred, non-specific pathogen-free animals were randomly divided into cohorts based on body weight and both male and female animals were enrolled. […] A concentration of 342 nM was based on prior studies wherein 5 μg intact IgG per 0.1 ml volume was injected into the middle ears of chinchillas (Goodman et al., 2011; Novotny et al., 2016; and Novotny et al., 2019).
Disruption of NTHI biofilms resident within the middle ears of chinchillas with experimental OM: Both middle ears of each animal were challenged with 1000 CFU NTHI strain 86-028NP by direct injection to induce experimental OM. Four days later, NTHI mucosal biofilms fill >50% of the middle ear (Novotny et al., 2011). […] To determine the outcome of treatment, animals were sacrificed one day after completion of antibody therapy, images of mucosal biofilms captured with a Zeiss SV6 dissecting microscope, then mucosal biofilms and middle ear mucosa collected, homogenized and plated on to chocolate agar to semi-quantitate the non-planktonic bacterial load within the middle ear (Goodman et al., 2011). […] As an additional assessment, the amount of biofilm in each middle ear was qualitatively determined. […] For both quantitation of bacterial load and qualitative assessment of mucosal biofilm, each middle ear was considered independent.

neutrophils in BAL = experiment: Inflammatory cell recruitment into lungs of B. cenocepacia-challenged mice (H&E, flow cytometry of BAL); format: in vivo, C57BL/6 mice; details: B. cenocepacia-infected and simultaneously treated, 0.2 nmol, 18 hpi
[6] = as above; format: in vivo, C57BL/6 mice; details: B. cenocepacia-challenged mice, 0.2 nmol, 72 hpi
[7] = system: biofilms formed by UPEC, B. cenocepacia, NTHI, Enterobacter spp, S. aureus, K. pneumoniae, A. baumanii, P. aeruginosa, E. faecium; experiment: Disruption of 24 h bacterial biofilms in vitro by HMGB1 isoforms (LIVE/DEAD stain, CLSM, COMSTAT average thickness); details: 24 h biofilms of nine pathogens; 200 nM protein, 16 h (S. aureus 800 nM rHMGB1; E. faecium 800 nM, 1 h)
E. faecium biofilms = experiment: Disruption of 24 h E. faecium biofilms in vitro (CLSM, COMSTAT average thickness); details: 24 h biofilms, 1 h incubation; non-bactericidal dose

HJ DNA (cited)
Kd (HMGB1 full-length): 10 nM

B1: mHMGB1 (C45S), recombinant human HMGB1 with an engineered single amino acid mutation C45S (other)
chain: MGKGDPKKPRGKMSSYAFFVQTCREEHKKKHPDASVNFSEFSKKSSERWKTMSAKEKGKFEDMAKADKARYEREMKTYIPPKGETKKKFKDPNAPKRPPSAFFLFCSEYRPKIKGEHPGLSIGDVAKKLGEMWNNTAADDKQPYEKKAAKLKEKYEKDIAAYRAKGKPDAAKKGVVKAEKSKKKKEEEEGEEDEEDEEEEEDEEDEDEEEDDDDE
notes: also called modified HMGB1
Kd [1]: 579 nM
Kd [2]: 103 nM
Kd [3]: 104 nM

B2: mHMGB1: recombinant human HMGB1 with engineered single amino acid mutation C45S, SEQ ID NO: 52 (protein)
chain: B1 chain
modifications: mHMGB1 (C45S)
binding to HJ DNA (EMSA) (HJ DNA): maintained its ability to bind HJ DNA; also recorded: retained its ability to bind to HJ DNA
IL-10 in middle ear fluids [4]: significantly elevated concentration; also recorded: statistically significant increase
induction of NET formation by neutrophils (Human neutrophils): intertwined NETs specifically formed; also recorded: more strongly induced NET formation
B. cenocepacia stained within the lung tissue (B. cenocepacia): significantly reduced bacterial load
UPEC biofilm disruption in the presence of CbpA (negative control) (UPEC biofilms): could still disrupt UPEC biofilms
UPEC biofilm disruption in the presence of exogenously added RuvA (UPEC biofilms; competitor dose-dependent): lost in the presence of competitors; also recorded: unable to disrupt biofilms formed by UPEC
biofilm bacteria (FilmTracer FM 4-64) [5]: substantial reduction in biofilm bacteria
web-like eDNA lattice structure within biofilm [5]: disruption of the web-like structure; also recorded: notably disrupted
middle ears that cleared NTHI / culture-negative (NTHI biofilms; 24 h after one dose, 6 middle ears): 50%
NTHI in middle ears after two doses (NTHI biofilms; 24 h after second dose): further reduced
relative amount of remaining NTHI mucosal biofilm (NTHI biofilms; one or two doses): highly effective
neutrophils in BAL (flow cytometry) (neutrophils in BAL): eliminated the pro-inflammatory activity; also recorded: significant reduction of neutrophils in BAL compared to those treated with rHMGB1
infiltration of inflammatory cells into lungs (H&E) [6]: no signs of inflammation
biofilm average thickness compared to control [7]: significantly disrupted bacterial biofilms; also recorded: fully retained the anti-biofilm activity
dose required to achieve a similar reduction in biofilm average thickness, E. faecium (E. faecium biofilms): required a higher dose
